Measured values from patent US20080207517A1 (INSTITUT PASTEUR, published 2008).
* marks the point of attachment. BODIPYFLEthylmaleimide = Cc1cc(C)n2c1C=C1C=CC(CCC(=O)NCCN3C(=O)CC(*)C3=O)=[N+]1[B-]2(F)F

What was measured:
[1] = target: the molecule itself; assay: gel filtration (Superdex 75), self-association
Protocol: The oligomeric states of peptides were determined by filtration as described in Traincard et al., 2003. In brief, 500 μl samples were loaded on a SUPERDEX™ 75 HR 10/30 column equilibrated in 50 mM Tris-HCl pH 8.0 containing 200 mM NaCl and 0.1 mM DDM, at a constant flow rate of 0.4 ml/min. The presence of the DDM detergent was added in the equilibrium buffer to minimize the adsorption in the column and to increase the peptide recovery. The column was calibrated in the same equilibrium buffer with blue dextran 2000 (void volume), dithioerythritol (total volume), bovine serum albumin (67 kDa, Rs=35.2 Å), ovalbumine (43 kDa, Rs=27.5 Å), chymotrypsinogen A (25 kDa, Rs=21.1 Å), ribonuclease A (13.7 kDa, Rs=16.4 Å), cytochrome C (12.4 kDa, Rs=17.7 Å) and aprotinin (6.5 KDa, Rs=13.5 Å).

[2] = target: T1, NEMO (NF-kB essential modulator), murine (murine, UniProt O88522 1-412); assay: cell-based or functional assay
[3] = target: T1, NEMO (NF-kB essential modulator), murine; assay: cell-based or functional assay; remark: listed apart in the source
CC2 (WT) [4] = target: T2, CC2 (WT) (murine, N-terminal acetyl group; C-terminal amide); assay: fluorescence anisotropy, 1 µM BODIPY-Ant-CC2 titrated with CC2
T2 construct: Forms a trimer at 10 uM in gel filtration; also called CC2 peptide; CC2 wild type
T2 peptide: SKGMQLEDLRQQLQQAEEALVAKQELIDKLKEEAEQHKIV
Protocol: (§1) (A) Direct titration of BODIPY-Ant-CC2 (1 μM) with CC2 by fluorescence anitropy. The concentration of CC2 was determined by amino acid analysis. Anisotropy values of BODIPY-Ant-CC2 in milliunits (mA) were plotted against an increasing concentration of the CC2 peptide. […] The two dashed lines represent a stoichiometric titration and intersect at an CC2 concentration of […]. Given the 1 μM concentration of the BODIPY-Ant-CC2, this gives a complex stoechiometrie of 0.8. (B) Direct titration of BODIPY-Ant-LZ (0.1 μM) with CC2 by fluorescence anitropy. The anisotropy values of the BODIPY-Ant-LZ alone (white bar) or in the presence of the CC2 peptide (30 μM, grey bar; 100 μM, black bar) are given in milliunits (mA).
(§2) Anisotropy measurements were performed with a PTI […]™ fluorometer equipped with polarizers for the excitation and emission beams. This instrument uses a PMT in the L-configuration. […] Steady-state fluorescence anisotropy was expressed as millianisotropy (mA) and was calculated according to the equations: (1) A=(IVV−GIVH)/(IVV+2GIVH); (2) G=IHV/IHH.; where A is anisotropy, G is a correction factor for wavelength-dependent distortion and I is the fluorescence intensity component (subscript referring to the vertical and horizontal positioning at the excitation and emission polarizers, respectively). […]

CC2 (WT) [5] = target: T2, CC2 (WT); assay: fluorescence anisotropy, 1 µM BODIPY-Ant-CC2 titrated with 1-125 µM CC2
Protocol: as §1, §2

T1 sequence (O88522 other isoform, or with tags, fused parts or gaps): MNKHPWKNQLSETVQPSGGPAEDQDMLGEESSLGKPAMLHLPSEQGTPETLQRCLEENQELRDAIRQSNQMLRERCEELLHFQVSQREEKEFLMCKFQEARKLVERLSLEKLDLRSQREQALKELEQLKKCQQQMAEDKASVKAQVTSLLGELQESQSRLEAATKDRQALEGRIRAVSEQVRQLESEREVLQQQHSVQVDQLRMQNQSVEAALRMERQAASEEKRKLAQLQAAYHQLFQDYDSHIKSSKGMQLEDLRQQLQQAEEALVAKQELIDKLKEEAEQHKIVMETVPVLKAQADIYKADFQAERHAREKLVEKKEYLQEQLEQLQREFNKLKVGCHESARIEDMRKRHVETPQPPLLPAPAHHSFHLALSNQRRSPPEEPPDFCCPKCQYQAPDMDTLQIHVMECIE

B1: BODIPY-Ant-CC2 (Mu) (peptide)
peptide: Ac-C(BODIPYFLEthylmaleimide)RQIKIWFQNRRMKWKKSKGMQLEDLRQQGQQAEEAGVAKQELGDKLKEEAEQHKIV-NH2
notes: also called CC2 variant
[1]
  binding result: no binding (tested: 10 µM)

B2: BODIPY-R7-NLM-DR (peptide)
peptide: Ac-C(BODIPYFLEthylmaleimide)RRRRRRRLKAQADIYKARFQAERHAREK-NH2
SMILES: CC[C@H](C)[C@H](NC(=O)[C@H](CC(=O)O)NC(=O)[C@H](C)NC(=O)[C@H](CCC(N)=O)NC(=O)[C@H](C)NC(=O)[C@H](CCCCN)NC(=O)[C@H](CC(C)C)NC(=O)[C@H](CCCNC(=N)N)NC(=O)[C@H](CCCNC(=N)N)NC(=O)[C@H](CCCNC(=N)N)NC(=O)[C@H](CCCNC(=N)N)NC(=O)[C@H](CCCNC(=N)N)NC(=O)[C@H](CCCNC(=N)N)NC(=O)[C@H](CCCNC(=N)N)NC(=O)[C@H](CSC1CC(=O)N(CCNC(=O)CCC2=[N+]3C(=Cc4c(C)cc(C)n4[B-]3(F)F)C=C2)C1=O)NC(C)=O)C(=O)N[C@@H](Cc1ccc(O)cc1)C(=O)N[C@@H](CCCCN)C(=O)N[C@@H](C)C(=O)N[C@@H](CCCNC(=N)N)C(=O)N[C@@H](Cc1ccccc1)C(=O)N[C@@H](CCC(N)=O)C(=O)N[C@@H](C)C(=O)N[C@@H](CCC(=O)O)C(=O)N[C@@H](CCCNC(=N)N)C(=O)N[C@@H](Cc1c[nH]cn1)C(=O)N[C@@H](C)C(=O)N[C@@H](CCCNC(=N)N)C(=O)N[C@@H](CCC(=O)O)C(=O)N[C@@H](CCCCN)C(N)=O
[2]
  IC 50 (inhibition of NF-κB activation pathway): 0.9 µM

B3: BODIPY-TAT-NLM-DR (peptide)
peptide: Ac-C(BODIPYFLEthylmaleimide)YGRKKRRQRRRLKAQADIYKARFQAERHAREK-NH2
SMILES: CC[C@H](C)[C@H](NC(=O)[C@H](CC(=O)O)NC(=O)[C@H](C)NC(=O)[C@H](CCC(N)=O)NC(=O)[C@H](C)NC(=O)[C@H](CCCCN)NC(=O)[C@H](CC(C)C)NC(=O)[C@H](CCCNC(=N)N)NC(=O)[C@H](CCCNC(=N)N)NC(=O)[C@H](CCCNC(=N)N)NC(=O)[C@H](CCC(N)=O)NC(=O)[C@H](CCCNC(=N)N)NC(=O)[C@H](CCCNC(=N)N)NC(=O)[C@H](CCCCN)NC(=O)[C@H](CCCCN)NC(=O)[C@H](CCCNC(=N)N)NC(=O)CNC(=O)[C@H](Cc1ccc(O)cc1)NC(=O)[C@H](CSC1CC(=O)N(CCNC(=O)CCC2=[N+]3C(=Cc4c(C)cc(C)n4[B-]3(F)F)C=C2)C1=O)NC(C)=O)C(=O)N[C@@H](Cc1ccc(O)cc1)C(=O)N[C@@H](CCCCN)C(=O)N[C@@H](C)C(=O)N[C@@H](CCCNC(=N)N)C(=O)N[C@@H](Cc1ccccc1)C(=O)N[C@@H](CCC(N)=O)C(=O)N[C@@H](C)C(=O)N[C@@H](CCC(=O)O)C(=O)N[C@@H](CCCNC(=N)N)C(=O)N[C@@H](Cc1c[nH]cn1)C(=O)N[C@@H](C)C(=O)N[C@@H](CCCNC(=N)N)C(=O)N[C@@H](CCC(=O)O)C(=O)N[C@@H](CCCCN)C(N)=O
[2]
  IC 50 (inhibition of NF-κB activation pathway): 1 µM

B4: BODIPY-Ant-LZ (WT) (peptide)
peptide: Ac-C(BODIPYFLEthylmaleimide)RQIKIWFQNRRMKWKKLKAQADIYKADFQAERHAREKLVEKKEYLQEQLEQLQREFNKL-NH2
notes: Synthetic peptide; elutes as a monomer in gel filtration at 10 uM
[3]
  IC50 of inhibition of LPS-induced NF-κB activation (β-galactosidase reporter, 70Z3-C3 cells): 3 µM
  fold reduction of LPS-induced NF-κB activation at 10 µM peptide (stringent β-galactosidase assay, 70Z3-C3 cells): 5.8 fold
[1]
  binding result: no binding (tested: 10 µM)

B5: BODIPY-Ant-CC2 (WT) (peptide)
peptide: Ac-C(BODIPYFLEthylmaleimide)RQIKIWFQNRRMKWKKSKGMQLEDLRQQLQQAEEALVAKQELIDKLKEEAEQHKIV-NH2
notes: Synthetic peptide; elutes as a monomer in gel filtration at 10 uM; also called Ant-CC2 BODIPY peptide
CC2 (WT) [4]
  stoichiometry: 0.8
[3]
  IC50 of inhibition of LPS-induced NF-κB activation (β-galactosidase reporter, 70Z3-C3 cells): 22 µM
  fold reduction of LPS-induced NF-κB activation at 10 µM peptide (stringent β-galactosidase assay, 70Z3-C3 cells): 1.7 fold
[1]
  binding result: no binding (tested: 10 µM)
CC2 (WT) [5]
  Kd: 15.2 µM

B6: BODIPY-R9-NLM-DR (peptide)
peptide: Ac-C(BODIPYFLEthylmaleimide)RRRRRRRRRLKAQADIYKARFQAERHAREK-NH2
SMILES: CC[C@H](C)[C@H](NC(=O)[C@H](CC(=O)O)NC(=O)[C@H](C)NC(=O)[C@H](CCC(N)=O)NC(=O)[C@H](C)NC(=O)[C@H](CCCCN)NC(=O)[C@H](CC(C)C)NC(=O)[C@H](CCCNC(=N)N)NC(=O)[C@H](CCCNC(=N)N)NC(=O)[C@H](CCCNC(=N)N)NC(=O)[C@H](CCCNC(=N)N)NC(=O)[C@H](CCCNC(=N)N)NC(=O)[C@H](CCCNC(=N)N)NC(=O)[C@H](CCCNC(=N)N)NC(=O)[C@H](CCCNC(=N)N)NC(=O)[C@H](CCCNC(=N)N)NC(=O)[C@H](CSC1CC(=O)N(CCNC(=O)CCC2=[N+]3C(=Cc4c(C)cc(C)n4[B-]3(F)F)C=C2)C1=O)NC(C)=O)C(=O)N[C@@H](Cc1ccc(O)cc1)C(=O)N[C@@H](CCCCN)C(=O)N[C@@H](C)C(=O)N[C@@H](CCCNC(=N)N)C(=O)N[C@@H](Cc1ccccc1)C(=O)N[C@@H](CCC(N)=O)C(=O)N[C@@H](C)C(=O)N[C@@H](CCC(=O)O)C(=O)N[C@@H](CCCNC(=N)N)C(=O)N[C@@H](Cc1c[nH]cn1)C(=O)N[C@@H](C)C(=O)N[C@@H](CCCNC(=N)N)C(=O)N[C@@H](CCC(=O)O)C(=O)N[C@@H](CCCCN)C(N)=O
[2]
  IC 50 (inhibition of NF-κB activation pathway): 0.9 µM

B7: BODIPY-Ant-NLM-DR (peptide)
peptide: Ac-C(BODIPYFLEthylmaleimide)RQIKIWFQNRRMKWKKLKAQADIYKARFQAERHAREK-NH2
SMILES: CC[C@H](C)[C@H](NC(=O)[C@H](CC(=O)O)NC(=O)[C@H](C)NC(=O)[C@H](CCC(N)=O)NC(=O)[C@H](C)NC(=O)[C@H](CCCCN)NC(=O)[C@H](CC(C)C)NC(=O)[C@H](CCCCN)NC(=O)[C@H](CCCCN)NC(=O)[C@H](Cc1c[nH]c2ccccc12)NC(=O)[C@H](CCCCN)NC(=O)[C@H](CCSC)NC(=O)[C@H](CCCNC(=N)N)NC(=O)[C@H](CCCNC(=N)N)NC(=O)[C@H](CC(N)=O)NC(=O)[C@H](CCC(N)=O)NC(=O)[C@H](Cc1ccccc1)NC(=O)[C@H](Cc1c[nH]c2ccccc12)NC(=O)[C@@H](NC(=O)[C@H](CCCCN)NC(=O)[C@@H](NC(=O)[C@H](CCC(N)=O)NC(=O)[C@H](CCCNC(=N)N)NC(=O)[C@H](CSC1CC(=O)N(CCNC(=O)CCC2=[N+]3C(=Cc4c(C)cc(C)n4[B-]3(F)F)C=C2)C1=O)NC(C)=O)[C@@H](C)CC)[C@@H](C)CC)C(=O)N[C@@H](Cc1ccc(O)cc1)C(=O)N[C@@H](CCCCN)C(=O)N[C@@H](C)C(=O)N[C@@H](CCCNC(=N)N)C(=O)N[C@@H](Cc1ccccc1)C(=O)N[C@@H](CCC(N)=O)C(=O)N[C@@H](C)C(=O)N[C@@H](CCC(=O)O)C(=O)N[C@@H](CCCNC(=N)N)C(=O)N[C@@H](Cc1c[nH]cn1)C(=O)N[C@@H](C)C(=O)N[C@@H](CCCNC(=N)N)C(=O)N[C@@H](CCC(=O)O)C(=O)N[C@@H](CCCCN)C(N)=O
[2]
  IC 50 (inhibition of NF-κB activation pathway): 1.1 µM

B8: BODIPY-Ant-LZ (Mu) (peptide)
peptide: Ac-C(BODIPYFLEthylmaleimide)RQIKIWFQNRRMKWKKLKAQADIYKADFQAERHAREKLVEKKEYSQEQLEQSQREFNKL-NH2
notes: Two L to S mutations at d positions; also called BODIPY-Ant LZ mutant
[1]
  binding result: no binding (tested: 10 µM)

B9: CC2 (Mu) (peptide)
peptide: Ac-SKGMQLEDLRQQGQQAEEAGVAKQELGDKLKEEAEQHKIV-NH2
notes: As for CC2 (WT), the printed theoretical mass (3987.43 Da) fits residues 6-40 only; also called CC2 mutant
[1]
  binding result: no binding (tested: 10 µM)
